Measured values from PMC8216460 (Nucleic Acids Research, 2021).

B1: EcDnaC, helicase loader DnaC from E. coli (natural protein)
chain: MKNVGDLMQRLQKMMPAHIKPAFKTGEELLAWQKEQGAIRSAALERENRAMKMQRTFNRSGIRPLHQNCSFENYRVECEGQMNALSKARQYVEEFDGNIASFIFSGKPGTGKNHLAAAICNELLLRGKSVLIITVADIMSAMKDTFRNSGTSEEQLLNDLSNVDLLVIDEIGVQTESKYEKVIINQIVDRRSSSKRPTGMLTNSNMEEMTKLLGERVMDRMRLGNSLWVIFNWDSYRSRVTGKEY
B2: VcDnaB, replicative helicase DnaB from Vibrio cholerae (enzyme)
chain: MADPRTDNRNRKIPDAQVDAIKVPPHSLEAEQSVIGGLLLDNERWDTVSEHVMTQDFYSRPHRLIFDGVKSILEAGKPLDLITLSEYLEQREQLEDVGGFAYLADLAKNTPSAANINAYAEIVAERALVRNLIGVANEIADAGYDPQGRNAEDLLDLAESKVFAIAEARTSENEGPKNVDSILERTLERIELLYKTPQDGVTGVNTGFTDLNKKTAGLQGSDLIIVAARPSMGKTTFAMNLCENAAMEQDKPVLIFSLEMPAEQIMMRMLASLSRVDQTKIRTGQLDDEDWARISSTMGILMEKKNMYIDDSSGLTPTEVRSRARRIAREHGGLSLIMVDYLQLMRVPALTDNRTLEIAEISRSLKALAKELNVPVVALSQLNRSLEQRADKRPVNSDLRESGSIEQDADLIMFIYRDEVYHPDSPLKGTAEIIIGKQRNGPIGSVRLTFQGHYSRFDNYAGPAFDDE
B3: VcDnaB, replicative helicase DnaB from Vibrio cholerae (enzyme)
chain: B2 chain

Assays:
[1] = target: VcDnaB, replicative helicase DnaB from Vibrio cholerae (Vibrio cholerae); assay: SEC-SAXS
[2] = target: VcDnaB, replicative helicase DnaB from Vibrio cholerae (Vibrio cholerae); assay: SPR
VcDnaB^S296G = VcDnaB^S296G (Vibrio cholerae, UniProt A0A085R2T8 1-468, S296G); assay: SPR
[3] = target: B2; assay: SPR
EcDnaB^G299S = EcDnaB^G299S (E. coli, UniProt P0ACB0 1-471, G299S); assay: SPR
crystal structure = target: the molecule itself; assay: crystal structure
SEC-MALS = target: the molecule itself; assay: SEC-MALS

**Q.** What does the source list for “VcDciA, DciA from Vibrio cholerae (natural protein)”?
**A.** stoichiometry N (VcDciA per VcDnaB hexamer) [1]: 3; stoichiometry N (VcDciA per 6 VcDnaB) [2]: 3

**Q.** Does B1 bind (VcDnaB^S296G)?
**A.** binds

**Q.** Does B1 bind [3]?
**A.** binds

**Q.** And the “fold change of the dissociation rate against EcDnaB” value (EcDnaB^G299S)?
**A.** 2 fold

**Q.** For B2, which “stoichiometry N” value (crystal structure) is on record?
**A.** 6 subunits

**Q.** With B3 as the molecule, how does the “stoichiometry N” value (SEC-MALS) read?
**A.** 6
